This is an account of results in patent US20110097262A1 (PIERRE FABRE MEDICAMENT, published 2011).

The assay addresses C-Met-Rluc (R. reniformis, UniProt P08581 25-1390; P27652 1-311). The experiment in a line: cell-based or functional assay.

Chain of C-Met-Rluc (P08581 other isoform, or with tags, fused parts or gaps): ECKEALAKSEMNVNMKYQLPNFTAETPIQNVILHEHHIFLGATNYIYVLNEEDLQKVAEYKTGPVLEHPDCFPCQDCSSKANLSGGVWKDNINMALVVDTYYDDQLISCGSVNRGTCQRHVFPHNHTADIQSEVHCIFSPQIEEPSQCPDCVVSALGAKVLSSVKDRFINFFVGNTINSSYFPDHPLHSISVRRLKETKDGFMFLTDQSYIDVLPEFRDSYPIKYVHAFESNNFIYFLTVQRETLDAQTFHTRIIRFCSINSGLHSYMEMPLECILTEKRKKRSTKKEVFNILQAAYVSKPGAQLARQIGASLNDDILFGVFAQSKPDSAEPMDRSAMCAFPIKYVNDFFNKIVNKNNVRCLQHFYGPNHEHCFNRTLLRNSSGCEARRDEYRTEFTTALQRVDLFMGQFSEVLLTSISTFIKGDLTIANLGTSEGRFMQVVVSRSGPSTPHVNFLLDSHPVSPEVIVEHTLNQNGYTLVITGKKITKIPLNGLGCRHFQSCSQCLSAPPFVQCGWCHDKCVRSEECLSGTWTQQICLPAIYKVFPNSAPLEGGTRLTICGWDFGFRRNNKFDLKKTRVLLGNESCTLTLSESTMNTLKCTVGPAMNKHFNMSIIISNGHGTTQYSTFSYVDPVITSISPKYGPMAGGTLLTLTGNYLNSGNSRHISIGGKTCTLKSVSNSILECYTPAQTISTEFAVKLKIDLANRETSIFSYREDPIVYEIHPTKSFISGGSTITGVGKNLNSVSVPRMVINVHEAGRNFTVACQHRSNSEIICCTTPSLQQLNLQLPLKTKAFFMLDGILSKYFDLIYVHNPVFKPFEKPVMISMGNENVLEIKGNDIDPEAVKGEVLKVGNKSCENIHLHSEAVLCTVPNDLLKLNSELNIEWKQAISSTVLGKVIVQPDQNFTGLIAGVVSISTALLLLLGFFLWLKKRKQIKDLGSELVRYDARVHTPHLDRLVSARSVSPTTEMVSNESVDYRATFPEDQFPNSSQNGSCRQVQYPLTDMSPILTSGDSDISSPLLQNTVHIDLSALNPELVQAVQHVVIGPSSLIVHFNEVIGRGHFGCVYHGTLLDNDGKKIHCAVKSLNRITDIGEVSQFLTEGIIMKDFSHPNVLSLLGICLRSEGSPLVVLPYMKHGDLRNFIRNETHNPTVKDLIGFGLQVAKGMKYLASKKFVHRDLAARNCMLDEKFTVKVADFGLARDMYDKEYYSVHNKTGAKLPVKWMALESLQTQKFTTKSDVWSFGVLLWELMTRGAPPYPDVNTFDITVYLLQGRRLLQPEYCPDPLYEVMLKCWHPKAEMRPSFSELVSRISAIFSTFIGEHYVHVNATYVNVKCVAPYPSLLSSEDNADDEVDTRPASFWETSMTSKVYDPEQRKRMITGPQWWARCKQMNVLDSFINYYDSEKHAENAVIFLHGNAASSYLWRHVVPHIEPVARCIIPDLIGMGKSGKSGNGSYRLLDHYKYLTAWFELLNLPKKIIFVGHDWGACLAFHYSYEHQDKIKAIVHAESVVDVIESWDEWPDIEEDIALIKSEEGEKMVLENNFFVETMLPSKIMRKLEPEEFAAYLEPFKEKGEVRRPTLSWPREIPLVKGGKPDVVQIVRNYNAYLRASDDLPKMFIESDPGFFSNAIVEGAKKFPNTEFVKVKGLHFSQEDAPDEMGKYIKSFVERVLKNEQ

B1: [224G11] [MHchim] (antibody, human IgG1, V domains shown)
VH: EVQLQQSGPELVKPGASVKISCKTSGYIFTAYTMHWVRQSLGESLDWIGGIKPNNGLANYNQKFKGKATLTVDKSSSTAYMDLRSLTSEDSAVYYCARSEITTEFDYWGQGTALTVSS
VL: DIVLTQSPASLAVSLGQRATISCRASESVDSYANSFMHWYQQKPGQPPKLLIYRASNLESGIPARFSGSGSRTDFTLTINPVEADDVATYYCQQSKEDPLTFGSGTKLEMKR
In the case of B1, the “BRET signal by Mab alone, c-Met activation model” value (“BRET signal by Mab alone” below) stood at 5.1%.

B2: [224G11] [MUP9Hchim] (antibody, human IgG1, V domains shown)
VH: EVQLQQSGPELVKPGASVKISCKTSGYIFTAYTMHWVRQSLGESLDWIGGIKPNNGLANYNQKFKGKATLTVDKSSSTAYMDLRSLTSEDSAVYYCARSEITTEFDYWGQGTALTVSS
VL: DIVLTQSPASLAVSLGQRATISCRASESVDSYANSFMHWYQQKPGQPPKLLIYRASNLESGIPARFSGSGSRTDFTLTINPVEADDVATYYCQQSKEDPLTFGSGTKLEMKR
B2: the “BRET signal by Mab alone” value was 7.6%.

B3: [224G11] [MMCHchim] (antibody, human IgG1, V domains shown)
VH: EVQLQQSGPELVKPGASVKISCKTSGYIFTAYTMHWVRQSLGESLDWIGGIKPNNGLANYNQKFKGKATLTVDKSSSTAYMDLRSLTSEDSAVYYCARSEITTEFDYWGQGTALTVSS
VL: DIVLTQSPASLAVSLGQRATISCRASESVDSYANSFMHWYQQKPGQPPKLLIYRASNLESGIPARFSGSGSRTDFTLTINPVEADDVATYYCQQSKEDPLTFGSGTKLEMKR
Consider B3, for which the “BRET signal by Mab alone” value was -2%.

B4: [224G11][TH7chim] (antibody, human IgG1)
heavy: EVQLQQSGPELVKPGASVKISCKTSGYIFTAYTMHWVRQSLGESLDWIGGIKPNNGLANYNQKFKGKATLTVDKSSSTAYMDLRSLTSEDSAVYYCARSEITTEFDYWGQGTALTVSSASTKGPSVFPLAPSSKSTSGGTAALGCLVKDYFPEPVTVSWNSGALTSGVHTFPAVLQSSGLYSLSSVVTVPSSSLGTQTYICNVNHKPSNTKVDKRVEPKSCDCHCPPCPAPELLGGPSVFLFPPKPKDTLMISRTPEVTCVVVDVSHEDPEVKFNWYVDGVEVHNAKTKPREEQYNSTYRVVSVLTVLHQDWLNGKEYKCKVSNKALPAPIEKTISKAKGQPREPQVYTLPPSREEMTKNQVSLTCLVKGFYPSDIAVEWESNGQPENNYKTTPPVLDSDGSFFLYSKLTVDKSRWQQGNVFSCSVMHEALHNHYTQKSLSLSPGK
light: DIVLTQSPASLAVSLGQRATISCRASESVDSYANSFMHWYQQKPGQPPKLLIYRASNLESGIPARFSGSGSRTDFTLTINPVEADDVATYYCQQSKEDPLTFGSGTKLEMKRTVAAPSVFIFPPSDEQLKSGTASVVCLLNNFYPREAKVQWKVDNALQSGNSQESVTEQDSKDSTYSLSSTLTLSKADYEKHKVYACEVTHQGLSSPVTKSFNRGEC
As for B4, the “BRET signal by Mab alone” value is -6.9%.

B5: [224G11] [IgG2chim] (antibody)
heavy: EVQLQQSGPELVKPGASVKISCKTSGYIFTAYTMHWVRQSLGESLDWIGGIKPNNGLANYNQKFKGKATLTVDKSSSTAYMDLRSLTSEDSAVYYCARSEITTEFDYWGQGTALTVSSASTKGPSVFPLAPCSRSTSESTAALGCLVKDYFPEPVTVSWNSGALTSGVHTFPAVLQSSGLYSLSSVVTVPSSNFGTQTYTCNVDHKPSNTKVDKTVERKCCVECPPCPAPPVAGPSVFLFPPKPKDTLMISRTPEVTCVVVDVSHEDPEVQFNWYVDGVEVHNAKTKPREEQFNSTFRVVSVLTVVHQDWLNGKEYKCKVSNKGLPAPIEKTISKTKGQPREPQVYTLPPSREEMTKNQVSLTCLVKGFYPSDIAVEWESNGQPENNYKTTPPMLDSDGSFFLYSKLTVDKSRWQQGNVFSCSVMHEALHNHYTQKSLSLSPG
light: DIVLTQSPASLAVSLGQRATISCRASESVDSYANSFMHWYQQKPGQPPKLLIYRASNLESGIPARFSGSGSRTDFTLTINPVEADDVATYYCQQSKEDPLTFGSGTKLEMKRTVAAPSVFIFPPSDEQLKSGTASVVCLLNNFYPREAKVQWKVDNALQSGNSQESVTEQDSKDSTYSLSSTLTLSKADYEKHKVYACEVTHQGLSSPVTKSFNRGEC
Consider B5, for which the “inhibition of HGF induced BRET signal, c-Met activation model” value came to 66.3%.
